From the DeepSol protein solubility set come the findings set out here.

A short description of the series: soluble on expression in E. coli; label from the status in PepcDB or PDB records.
With “ADGNNIKAPIETAVKPPHRTEDNIRDEARRNRSNAVNPFSAKYVPFNAAPGSTESYSLDEIVYRSRSGGLLDVEHDMEALKRFDGAYWRDLFDSRVGKSTWPYGSGVWSKKEWVLPEIDDDDIVSAFEGNSNLFWAERFGKQFLGMNDLWVKHCGISHTGSFKDLGMTVLVSQVNRLRKMKRPVVGVGCASTGDTSAALSAYCASAGIPSIVFLPANKISMAQLVQPIANGAFVLSIDTDFDGCMKLIREITAELPIYLANSLNSLRLEGQKTAAIEILQQFDWQVPDWVIVPGGNLGNIYAFYKGFKMCQELGLVDRIPRMVCAQAANANPLYLHYKSGWKDFKPMTASTTFASAIQIGDPVSIDRAVYALKKCNGIVEEATEEELMDAMAQADSTGMFICPHTGVALTALFKLRNQGVIAPTDRTVVVSTAHGLKFTQSKIDYHSNAIPDMACRFSNPPVDVKADFGAVMDVLKSYLGSNTLTS”, the “soluble on expression in E. coli” value is given as “soluble”.

With “MSLKVQGYANVVTLPNVTGRVIIVGDIHGCRAQLEDLLRAVSFKQGSDTLVAVGDLVNKGPDSFGVVRLLKRLGAYSVLGNHDAKLLKLVKKLGKKECLKGRDAKSSLAPLAQSIPTDVETYLSQLPHIIRIPAHNVMVAHAGLHPQRPVDRQYEDEVTTMRNLIEKEQEATGGVTLTATEETNDGGKPWASMWRGPETVVFGHDARRGLQEQYKPLAIGLDSRCVYGGRLSAAVFPGGCIISVPGWNGASAAAEGHHHHHH”, the “soluble on expression in E. coli” value is “soluble”.

As for “MAFLARKTSSLLPATTSSTVKHMIYDEPHFAMQNSLAKLIKEKINPNVAQWEKSGRYPAHFVFKMLGQLGVFAVNKPVDYGGTGRDFAMSIAIAEQIGAVDCGSIPMSVMVQSDMSTPALAQFGSDSLRNRFLRPSINGDLVSSIAVSEPHAGSDVSAIRTHARRYGSDLIINGSKMWITNGDQADWACVLVNTSNAKNLHKNKSLVCIPLDSIGVHRSTPLDKLGMRSSDTVQLFFEDVRVPSSYIIGEEGRGFAYQMNQFNDERLVTVAVGLLPLQKCINETIEYARERLIFGKTLLDQQYVQFRLAELEAELEATRSLLYRTVLARCQGEDVSMLTAMAKLKIGRLARKVTDQCLQIWGGAGYLNDNGISRAFRDFRIFSIGAGCDEVMMQIIHKTQSKRQQKRI”, the “soluble on expression in E. coli” value is “not soluble”.

For “MFERNREATMIFNIQRYSTHDGPGIRTVVFLKGCSLGCRWCQNPESRARTQDLLYDPRLCLEGCKLCAKTAPEVIERALNGLLIHREKLTPEHFTALTDCCPTQALTVCGEVKSVEEIMATVLRDKPFYDRSGGGLTLSGGEPFMQPEMATALLQASHEAGIHTAVETCLHVPWKYIAPSLPYIDLFLADLKHVADAPFKQWTDGNAARVLDNLKKLAAAGKKIIIRVPLIQGFNADETSVKAITDFAADELHVSEIHFLPYHTLGINKYHLLNLPYDAPEKPLDAPELLDFAQQYACQKGLTATLRG”, the “soluble on expression in E. coli” value is listed as “not soluble”.

For “MGSDKIHHHHHHKRQVSGDEAYLQASPLSELHAPAGMILPIQVGDYNIPVANSTGAVGKALDIRPPAQPLALVSGARTQFNGDTATLMVENGRSGSLWAQVTSILQAKNYVIAKRDDASQTLNTDWVEWNRLDEDQQYRGRYQISVKPQGYQQAVVVKLVNLEQAGKPVADPASLQRYSTAMLNVISEGLDMNATSAQNAAQRSAGATFDVQSAADDTGLPMLVVRAPFNLVWQRLPGALEKVGMKVTDSTRSQGSMALTYKPLSDSSWQELGARDPQLVSGDYKLQVGDLDNRSSLQFIDPKGHTLTQSQNDALVAVFQAAFNK”, the “soluble on expression in E. coli” value is “not soluble”.

Take “MPVPDLFAEGLARGWKTYNGSRLDDDLELEADVVVVGTGAGGGTTAEILSAAGLKVLLVEEGPLKTSSDFKMQEADAYPELYQEGIGRMSKDGAITILQGRAVGGTTLINWTSSFRTPEPTLQHWAQVYGVKGHSAEDMAPWFEKMEQRLHVAPWALPPNANNDVIRLGCEKLGYHWKVIPRNVLGCWNLGYCGMGCPVNAKQSMLVTTIPATLDKGGELLYLARANRLLLDGDKVTGLECLGMDERCVAPNGRRIRVRARHYVLSGGGINTPAILLRSKAPDPSQRVGKRTFLHTVNFSAGLFDRVINPFYGAPQSIYSDHFQWDDGVTGRMSYKLEVPPLQPSLASVLLGGFGSDNALRMEQLPHTNMMLALLRDGFHPDSAEGSVGLRGDDTPVLDYRMTDYTWDGIRRAFHTMAEIQFAAGAREVRPVHSDARSAKNLQEARGIIDGLRLEIYRTRLGSAHVMGGCAMGEDPAVAVADSLGRHHHLRNLSIHDGSLFPTSIGANPQLSVYGLTAQLASALAERLARALEHHHHHH”: the “soluble on expression in E. coli” value is given as “not soluble”.
